Laboratory results taken from paper doi:10.1101/2021.05.24.445441 (bioRxiv, 2021).
No end group written: not given here.

B1: human TrkA-TM (domain or fragment)
chain: MKKDETPFGVSVAVGLAVFACLFLSTLLLVLNKAGRRNK
modifications: also: 15N-labelled in one titration, unlabelled in the other

Key:
[1] = molecular target: p75-TM-C257A (human); assay: NMR cross-correlated relaxation rates
[2] = molecular target: the molecule itself; assay: NMR titration

| Molecule | stoichiometry N [1] | binding result [2] |
| --- | --- | --- |
| p75-TM-C257A (domain or fragment) | 2 |  |
| B1 |  | binds |
